Measurements published in PMC4858679, “PCNA is involved in the EndoQ-mediated DNA repair process in Thermococcales” (Scientific Reports, 2016).

T1: Endonuclease Q from Pyrococcus furiosus (Pyrococcus furiosus (endogenous in P. …, UniProt Q8U0N5 1-424))
T1 sequence (looked up): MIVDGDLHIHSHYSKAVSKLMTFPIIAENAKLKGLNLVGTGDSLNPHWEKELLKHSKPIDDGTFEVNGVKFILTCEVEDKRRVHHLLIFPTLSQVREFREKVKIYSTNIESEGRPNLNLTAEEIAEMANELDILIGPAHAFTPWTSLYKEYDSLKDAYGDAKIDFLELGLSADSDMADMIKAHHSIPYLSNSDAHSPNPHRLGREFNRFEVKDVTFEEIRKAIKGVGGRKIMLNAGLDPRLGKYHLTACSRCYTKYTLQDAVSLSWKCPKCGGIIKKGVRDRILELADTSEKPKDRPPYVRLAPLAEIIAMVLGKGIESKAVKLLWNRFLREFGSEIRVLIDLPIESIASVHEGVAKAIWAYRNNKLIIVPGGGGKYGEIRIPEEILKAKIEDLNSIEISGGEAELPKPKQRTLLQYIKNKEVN

T2: Endonuclease Q from Thermococcus kodakarensis, wild type (Thermococcus kodakarensis, UniProt Q5JI33 1-421)
T2 construct: Endonuclease Q (EndoQ), Thermococcus kodakarensis KOD1, locus TK0887, GenBank BAD85076; printed MW 48080.3; the C-terminal truncation removes residues 409-421, so the chain ends at 421; no tag is named; also called TkoEndoQ; TkoEndoQ^WT; source: E. coli, purified (as described previously)
T2 sequence (looked up): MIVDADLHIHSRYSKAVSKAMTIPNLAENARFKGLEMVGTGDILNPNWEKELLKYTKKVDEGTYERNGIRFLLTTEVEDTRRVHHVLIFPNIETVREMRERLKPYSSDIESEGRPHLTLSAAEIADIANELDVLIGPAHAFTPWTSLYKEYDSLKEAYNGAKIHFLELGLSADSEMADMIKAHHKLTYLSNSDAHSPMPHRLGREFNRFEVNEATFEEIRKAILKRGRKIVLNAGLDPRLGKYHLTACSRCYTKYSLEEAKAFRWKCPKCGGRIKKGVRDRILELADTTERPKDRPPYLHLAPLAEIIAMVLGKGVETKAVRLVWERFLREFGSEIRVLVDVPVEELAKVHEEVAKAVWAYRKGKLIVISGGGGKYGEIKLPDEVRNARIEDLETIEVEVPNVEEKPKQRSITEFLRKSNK


Key:
[1] = target: T1, Endonuclease Q from Pyrococcus furiosus; assay: cell-based or functional assay
[2] = target: the molecule itself; assay: SEC; gel filtration of purified TkoPCNA1 proteins; 160 μM
[3] = target: T2, Endonuclease Q from Thermococcus …; assay: SPR; Biacore J; TkoPCNA1 immobilised on a CM5 chip, TkoEndoQ injected (12-800 nM, 120 s); 25 °C; 10 mM HEPES pH 7.4, 0.4 M NaCl, 0.005% Tween20; 1:1 reaction model; apparent KD; conditions: both partners purified

Binder | stimulation of the endonuclease activity of purified PfuEndoQ on dI-containing DNA by purified PfuPCNA (0.18 M NaCl) [1] [fold] | binding result [2] | Kd [3] [nM]
Proliferating cell nuclear antigen from Pyrococcus furiosus (natural protein, UniProt O73947 1-249, looked up) MPFEIVFEGAKEFAQLIDTASKLIDEAAFKVTEDGISMRAMDPSRVVLIDLNLPSSIFSKYEVVEPETIGVNMDHLKKILKRGKAKDTLILKKGEENFLEITIQGTATRTFRVPLIDVEEMEVDLPELPFTAKVVVLGEVLKDAVKDASLVSDSIKFIARENEFIMKAEGETQEVEIKLTLEDEGLLDIEVQEETKSAYGVSYLSDMVKGLGKADEVTIKFGNEMPMQMEYYIRDEGRLTFLLAPRVEE | 6 to 7 |  | 
Proliferating cell nuclear antigen 1 from Thermococcus kodakarensis, wild type (natural protein, UniProt Q5JF32 1-249, looked up, PCNA1 (DNA polymerase sliding clamp 1), Thermococcus kodakarensis, locus TK0535; printed MW 28239.4; also called TkoPCNA1; TkoPCNA1^WT; source: E. coli, purified (as described previously)) MPFEVVFDGAKEFADLIATASNLIDEAAFKFTEEGISMRAMDPSRVVLIDLNLPESIFSKYEVEEPETIGINMDQFKKILKRGKAKDTLILRKGDENFLEITFEGTAKRTFRLPLIDVEELELELPELPFTAKVVLLGEVLKEGIKDASLVSDAIKFIAKENEFTMKAEGETNEVEIRLTLEDEGLLDLEVEEETKSAYGIRYLSDMVKGIGKADEVILRFGNEMPLQMEYMIRDEGRLTFLLAPRVEE |  | binds | 55
